# Data taken from US20230079955A1 (POSEIDA THERAPEUTICS, published 2023).
# Substitutions are numbered along the chain they refer to.
# T1: His-tagged p62/p58 MUC1 protein (UniProt P15941 1036-1155, limits assumed)
# T1 construct: domain: p62/p58; Soluble staining reagent for the CAR on T cells, detected with an anti-His secondary antibody; not shown: His tag
# T1 sequence (looked up): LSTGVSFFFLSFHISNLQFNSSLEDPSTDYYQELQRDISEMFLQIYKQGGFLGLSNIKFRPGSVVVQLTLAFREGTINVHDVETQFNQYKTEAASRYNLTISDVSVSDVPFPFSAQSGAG
# B1: "L2H2" CAR (humanized MUC1-C scFv chimeric antigen receptor) (other)
# chain: EILLTQSPDFQSVTPKEKVTFTCRASQSIGTSIHWYQQKPNQSPKLLIKYASESISGVPSRFSGSGSGTDFTLTINSVESEDIADYYCQQSNNWPLTFGQGTKLEIKGGGGSGGGGSGGGGSQVQLVQSGAEVKKPGSSVKISCKTSGYAFSNFWMNWVRQAPGQGLEWIGQIYPGDGDTNYNGKFKGRVTLTADKSTSTAYMELSSLRSEATAVYFCARSYYRSAWFAYWGQGTLVTVSSTTTPAPRPPTPAPTIASQPLSLRPEACRPAAGGAVHTRGLDFACDIYIWAPLAGTCGVLLLSLVITLYCKRGRKKLLYIFKQPFMRPVQTTQEEDGCSCRFPEEEEGGCELRVKFSRSADAPAYKQGQNQLYNELNLGRREEYDVLDKRRGRDPEMGGKPRRKNPQEGLYNELQKDKMAEAYSEIGMKGERRRGKGHDGLYQGLSTATKDTYDALHMQALPPR
# B2: "L1H4" CAR (humanized MUC1-C scFv chimeric antigen receptor) (other)
# chain: B1 chain with V78L, D85T, R160K, A162R, V190A, T198S
# B3: "L2H3" CAR (humanized MUC1-C scFv chimeric antigen receptor) (other)
# chain: B1 chain with R160K, A162R, V190A
# B4: "L1H3" CAR (humanized MUC1-C scFv chimeric antigen receptor) (other)
# chain: B1 chain with V78L, D85T, R160K, A162R, V190A
# B5: "L3H2" CAR (humanized MUC1-C scFv chimeric antigen receptor) (other)
# chain: B1 chain with T74S
# notes: also called 13H2
# B6: "L3H3" CAR (humanized MUC1-C scFv chimeric antigen receptor) (other)
# chain: B1 chain with T74S, R160K, A162R, V190A
# B7: "L2H4" CAR (humanized MUC1-C scFv chimeric antigen receptor) (other)
# chain: B1 chain with R160K, A162R, V190A, T198S
# B8: "L3H4" CAR (humanized MUC1-C scFv chimeric antigen receptor) (other)
# chain: B1 chain with T74S, R160K, A162R, V190A, T198S
# notes: also called 13H4
# B9: "L1H2" CAR (humanized MUC1-C scFv chimeric antigen receptor) (other)
# chain: B1 chain with V78L, D85T
# B10: "L1H2B" CAR (humanized MUC1-C scFv chimeric antigen receptor) (other)
# chain: B1 chain with V78L, D85T, G184A
# Biological target: MUC1 on MDA-MB-468.lucGFP cells (UniProt P15941 24-1255)
# Test: cell-based or functional assay
# Chain of MUC1 on MDA-MB-468.lucGFP cells (P15941 24-1255): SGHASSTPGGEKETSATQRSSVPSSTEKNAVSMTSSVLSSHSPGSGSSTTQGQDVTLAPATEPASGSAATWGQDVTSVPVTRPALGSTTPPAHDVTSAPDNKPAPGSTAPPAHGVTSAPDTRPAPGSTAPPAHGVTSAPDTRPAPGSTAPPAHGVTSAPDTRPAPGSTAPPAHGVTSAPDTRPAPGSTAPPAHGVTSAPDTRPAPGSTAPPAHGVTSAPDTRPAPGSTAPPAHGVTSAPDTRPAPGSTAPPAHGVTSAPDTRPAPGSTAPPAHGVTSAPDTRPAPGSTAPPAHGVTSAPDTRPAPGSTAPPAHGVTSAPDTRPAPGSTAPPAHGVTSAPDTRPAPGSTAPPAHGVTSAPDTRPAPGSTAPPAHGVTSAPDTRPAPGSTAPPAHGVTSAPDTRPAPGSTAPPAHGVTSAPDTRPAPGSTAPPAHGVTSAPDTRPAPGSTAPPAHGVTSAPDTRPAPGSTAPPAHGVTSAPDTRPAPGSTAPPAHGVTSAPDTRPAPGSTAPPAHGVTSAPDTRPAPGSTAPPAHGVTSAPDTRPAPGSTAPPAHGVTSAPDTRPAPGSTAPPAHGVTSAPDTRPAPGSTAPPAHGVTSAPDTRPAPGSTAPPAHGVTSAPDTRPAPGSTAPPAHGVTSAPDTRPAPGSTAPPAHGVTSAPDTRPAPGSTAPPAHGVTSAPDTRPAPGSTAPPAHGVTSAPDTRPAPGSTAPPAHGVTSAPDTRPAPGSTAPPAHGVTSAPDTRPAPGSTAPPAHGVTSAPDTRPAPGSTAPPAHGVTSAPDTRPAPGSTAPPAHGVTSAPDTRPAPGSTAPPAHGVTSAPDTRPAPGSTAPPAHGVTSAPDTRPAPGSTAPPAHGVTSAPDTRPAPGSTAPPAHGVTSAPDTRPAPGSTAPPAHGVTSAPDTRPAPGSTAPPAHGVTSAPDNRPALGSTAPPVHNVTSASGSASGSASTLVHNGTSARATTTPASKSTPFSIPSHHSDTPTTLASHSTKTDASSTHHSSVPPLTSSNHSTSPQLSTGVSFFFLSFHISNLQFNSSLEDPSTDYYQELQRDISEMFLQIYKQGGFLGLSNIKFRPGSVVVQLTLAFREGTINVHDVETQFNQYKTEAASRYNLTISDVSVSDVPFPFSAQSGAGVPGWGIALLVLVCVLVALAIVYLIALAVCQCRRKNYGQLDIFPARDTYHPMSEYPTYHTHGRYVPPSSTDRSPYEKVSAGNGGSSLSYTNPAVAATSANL
row,Binder,Target cell killing area under the curve (AUC)
1,B1,482
2,B2,498
3,B3,542
4,B4,490
5,B5,503
6,B6,518
7,B7,518
8,B8,501
9,B9,466
10,B10,528

# Biological target: T1, His-tagged p62/p58 MUC1 protein
# Test: flow cytometry of CAR-T cells stained with His-tagged p62/p58 MUC1 protein and anti-His secondary antibody, day 19
# Description: (§1) MUC1-C candidate CARs were subcloned into a tricistronic piggyBac transposon (EF1alpha promoter-iC9 Safety Switch-T2A-MUC1-C CAR-T2A-DHFR selection gene) and CAR-T cells were produced using pan T cells from a normal human blood donor as described herein (FIG. 6). Expression of each candidate CAR on the surface of piggyBac-modified cells was confirmed by FACS staining 19 days post-transposon delivery using an His-tagged p62/p58 MUC1 protein, followed by anti-His secondary antibody (FIG. 6). Specifically, cells were examined by flow cytometry for surface-expression of CAR on either mock transposed (blue) or anti-CD3/CD28 bead re-activated (red) cells (activation for 48 hours) that received transposon encoding CAR and data are shown as overlaid histograms; numbers represent percentage of cells expressing CAR on cell surface. All candidate MUC1-C CARs were expressed and detected on the surface of piggyBac-produced CAR-T cells (FIG. 7).
row,MFI (non-activated cells) [MFI],Binder
1,717,B1
2,737,B2
3,770,B3
4,743,B4
5,726,B5
6,696,B6
7,729,B7
8,695,B8
9,720,B9
10,714,B10

# Biological target: T1, His-tagged p62/p58 MUC1 protein
# Test: flow cytometry of CAR-T cells (anti-CD3/CD28 bead re-activated, 48 hours) stained with His-tagged p62/p58 MUC1 protein and anti-His secondary antibody
# Description: as §1
row,MFI (activated cells) [MFI],Binder
1,3830,B1
2,2510,B2
3,2880,B3
4,3320,B4
5,3620,B5
6,2580,B6
7,3020,B7
8,1960,B8
9,3030,B9
10,2990,B10
